T1: soluble CD109 protein (full-length recombinant CD109) (human, UniProt Q6YHK3 22-1420, limits assumed)
T1 construct: also called FL CD109; CD109 soluble full-length protein
T1 sequence: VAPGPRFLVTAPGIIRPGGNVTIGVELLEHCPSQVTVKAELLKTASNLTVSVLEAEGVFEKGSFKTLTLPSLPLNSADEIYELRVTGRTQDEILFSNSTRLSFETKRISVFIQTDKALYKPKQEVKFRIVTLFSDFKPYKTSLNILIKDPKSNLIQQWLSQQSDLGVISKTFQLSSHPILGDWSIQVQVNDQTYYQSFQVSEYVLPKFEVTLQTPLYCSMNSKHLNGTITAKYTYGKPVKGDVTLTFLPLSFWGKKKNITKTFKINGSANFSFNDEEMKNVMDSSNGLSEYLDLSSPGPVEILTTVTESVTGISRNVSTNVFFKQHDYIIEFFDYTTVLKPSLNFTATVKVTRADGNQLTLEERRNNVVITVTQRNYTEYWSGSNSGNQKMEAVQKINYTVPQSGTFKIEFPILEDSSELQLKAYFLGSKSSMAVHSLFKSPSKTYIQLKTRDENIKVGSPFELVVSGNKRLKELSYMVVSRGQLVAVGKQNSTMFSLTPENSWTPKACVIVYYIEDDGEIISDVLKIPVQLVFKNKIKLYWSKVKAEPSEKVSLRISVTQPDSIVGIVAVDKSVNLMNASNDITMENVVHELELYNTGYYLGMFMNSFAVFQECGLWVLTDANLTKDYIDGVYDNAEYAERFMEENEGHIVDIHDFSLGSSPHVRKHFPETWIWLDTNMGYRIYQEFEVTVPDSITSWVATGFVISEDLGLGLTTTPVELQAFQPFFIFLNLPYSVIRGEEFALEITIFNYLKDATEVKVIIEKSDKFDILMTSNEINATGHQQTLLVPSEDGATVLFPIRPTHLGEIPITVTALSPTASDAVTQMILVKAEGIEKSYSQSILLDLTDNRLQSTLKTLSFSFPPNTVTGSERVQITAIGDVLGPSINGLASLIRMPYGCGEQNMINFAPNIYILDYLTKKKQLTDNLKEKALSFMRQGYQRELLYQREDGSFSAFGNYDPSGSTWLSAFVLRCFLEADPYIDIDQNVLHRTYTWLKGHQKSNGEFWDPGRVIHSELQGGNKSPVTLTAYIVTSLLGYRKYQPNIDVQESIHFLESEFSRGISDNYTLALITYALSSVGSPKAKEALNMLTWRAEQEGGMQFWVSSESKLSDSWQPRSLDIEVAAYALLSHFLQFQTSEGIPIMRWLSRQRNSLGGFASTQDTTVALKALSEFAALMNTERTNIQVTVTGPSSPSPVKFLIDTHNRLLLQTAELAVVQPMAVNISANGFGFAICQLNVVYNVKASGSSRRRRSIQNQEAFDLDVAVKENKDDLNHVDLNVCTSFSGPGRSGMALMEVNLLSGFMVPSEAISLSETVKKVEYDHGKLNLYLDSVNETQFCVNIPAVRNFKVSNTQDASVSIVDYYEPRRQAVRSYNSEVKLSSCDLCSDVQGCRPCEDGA


Experiments:
[1] = target: T2, Transforming Growth Factor-β1 (TGF-β1) (UniProt P01137 279-390, 125I label in the affinity labeling assays); experiment: SPR, BIACORE 3000; Peptide A amine-coupled on CM5 chip, TGF-β1 as analyte
T2 construct: The background describes TGF-β as a 25 kDa growth factor; also called I125TGF-β1
T2 sequence (P01137 279-390 limits assumed): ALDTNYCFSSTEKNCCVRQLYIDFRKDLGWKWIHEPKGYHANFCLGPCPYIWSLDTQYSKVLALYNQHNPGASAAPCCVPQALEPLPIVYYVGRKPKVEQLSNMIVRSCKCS
Description: (§1) Surface plasmon resonance assay: CD109 protein and peptides were tested for their ability to bind TGF-β using surface plasmon resonance. CD109 protein and peptides were amine-coupled onto a gold-dextran CM5 sensor chip as the ligands and TGF-β1/2/3 in HBS-ET buffer as the analytes were pumped across the CD109 amine-coupled sensor chip and binding response was measured using BIACORE 3000™ SPR detection system.

[2] = target: T1, soluble CD109 protein (full-length …); experiment: SPR, BIACORE 3000; CD109 amine-coupled on CM5 chip, TGF-β as analyte
Description: as §1

Row | Kd [1] | Kd [2] | Binder
1 | 10 nM |  | CD109 Peptide A (CD109 amino acids 606-766) (also called CD109-based peptide) not shown
2 |  | 1 nM | TGF-β2 (ligand, UniProt P61812 303-414, looked up) ALDAAYCFRNVQDNCCLRPLYIDFKRDLGWKWIHEPKGYNANFCAGACPYLWSSDTQHSRVLSLYNTINPEASASPCCVSQDLEPLTILYYIGKTPKIEQLSNMIVKSCKCS
